The DeepSol protein solubility set

assay: soluble on expression in E. coli; label from the status in PepcDB or PDB records

Sequence	soluble on expression in E. coli
MSLSRKYFGTDGIRGRVGEFPITPDFVLKLGWAVGMAFRRQGNCRVLIGKDTRSSGYMFESAFEAGLSASGADTLLLGPMPTPGIAYLTRTFHAEAGVVISASHNPHDDNGIKFFSGQGTKLPDDVELMIEELLDAPMTVVESARLGKVSRINDAAGRYIEFCKSSVPTSTDFNGLKVVLDCANGATYKIAPSVFRELGAEVTVLAASPNGLNINDKCGSTHLDGLQAAVVEHHADLGIAFDGDGDRVMMVDHTGAVVDGDELLFLIARDLQESGRLQGGVVGTLMSNLGLELALQELHIPFVRAKVGDRYVMAELLARNWMLGGENSGHIVCCQNTTTGDAIIAALQVLMALKHRGQTLAEARQGIRKCPQVLINVRFKGENDPLEHPSVKEASVRVTEQMGGRGRVLLRKSGTEPLVRVMVEGDEEASVRAHAEQLAKIVSEVCAEGHHHHHH	soluble
VLHAIEPLNLGPKPIFVHEQGLLVEWIDGITLTKDGIELEELLPIAATIHQYHSSSIPVVPFSYISRIDHYWLELEGKYVGSEFETLYKQWRSEPSVEQIPLALCHFDLGCYNLVRGDQGVKVIDWEYASLADPRLDL	not soluble
MNMAEVSKNQVEKALETVIYPGSGKNIVALGMVSEIFIADAKAYFSITVPADKASEMEPLRLAAERAAKSVEGIAGAVVALTADRKPGQQQPAPAGPTPARPAAATGRPAAAPGRPTPQPGSSKVGVPGVRAIIAVASGKGGVGKSTTAVNLALGLQALGLKVGMLDADIYGPSLPRLLKISGRPKQQEDRIILPMENYGLKVMSMGFLVDEEAAMIWRGPMVQSALMQMLREVAWGELDVLVLDMPPGTGDAQLTIAQQVPLAGAVIVSTPQDLALLDARKGITMFRKVEVPLLGVIENMSYFIAPDTGARYDIFGHGGAKAEAERIGVPFLGEVPLTISIREMSDAGTPVVVAEPDGPQAAIYREIAEKVWARMGADERKAAPKIVFELEHHHHHH	not soluble
MGSDKIHHHHHHMIEIGKRCTLEIVKRVDFGVYLNAHEFGQVLLPNKVAPQGCEVGDSVEVFLYLDSEDMVIATTKRPKAQVGQFAYLKAVATGPYGAFLDWGLDKDLMLPFGEQHREIEVGRSYLVYVYVNSADDRIVASSKIDKFLDRTPPPYRNGQEVSLIIAGTTDLGYKAIIDNGHWGVLYKNEVYQPLKFGQRIKGFIKRVRSDDKIDLILQRGAKEELDKHATAILMKLNQAGGFLPLTDKTDAEVIYAELAMSKKAFKKSIGGLYKQQKIAIEADGIRLTE	not soluble
SLKEVLESKLNDRPDANVLIGLGRNISGEAVLAELNKMPHLLVAGATGSGKSVCVNGIITSILMRAKPHEVKMMMIDPKMVELNVYNGIPHLLAPVVTDPKKASQALKKVVNEMERRYELFSHTGTRNIEGYNDYIKRANNEEGAKQPELPYIVVIVDELADLMMVASSDVEDSITRLSQMARAAGIHLIIATQRPSV	not soluble
MSRDGSVAPKERINIRYVPATGDTQEDVELPLSMMVVGDFTARADETPIEERTPINIDKDNFNDVLEGMSPNVKVNVENRLSDEEGAQIGVDLTFQNMKDFSPEAIAKSVPELNSLLELREALVALKGPLGNVPAFRKKIASVLQDEEARKKLLDELSIGNDQDAKEE	soluble
GSHMASPTPAPSQSPIRRDAFSIIEAEEYNSTNSSTLQVIGTPNNGRGIGYIENGNTVTYSNIDFGSGATGFSATVATEVNTSIQIRSDSPTGTLLGTLYVSSTGSWNTYNTVSTNISKITGVHDIVLVFSGPVNVDNFIFSRSS	soluble
MGSDKIHHHHHHMGQRIIIDPVTRIEGHAKISIHLDDHGDVAETRFHVTEFRGFERFCIGRPFWEMPGITARICGICPVSHLLASARAGDGILAVLIPPAAEKLRRLMNLAQIIQSHALSFFHLSGPDLMLGFDSDPAQRNIFGLIAADPDVARNGIRLRQFGQEVIEMLGGRKIHPAWAVPGGVRSGLSASSRDHIRAKLPEMLTIACDALGRLKQLSAKYQREIETFGVFPSLYLGMVGPGGRWMHYGGKLRVIDHTGNILIDELDPIDYRDVIGEAVEPWSYLKFPYIRALGYPQGMYRVGPLARINICTTMGAERADAELRELRQAVGPVIHGSFYYHHARLIEIIAALERMEVLVEDDDLLSTELRADAGVNRHEAVGVSEAPRGTLFHHYRVDEKGLITDVNLIIATGQNNLAINRTVGQIAQSYIRHGQFDEGILNRIEAGVRAYDPCLSCSTHAVGQMAMEVDLYNAQGELINRLSR	not soluble
MAHHHHHHMDSMPPLSSPCLVEQEARQVPAGCFTRAVYALHSTDNEQTETAALTVRKLIKEEDQGMMRGAASSQIPLKRKGSKTNSAKSKYGKSGKLGRSSVVSWNLKSAPKITKAAGVTSANNNENREYVSPIVWCPVTPLMDNIYRSKWRQPMGRASSQAIDNEKNICIDETNVGENDLCMCKDVEAQFVLRGGERIYTLHYVTPLSMKRRETNEENSMCYGVLPVIRICVNPPVTP	not soluble
MCFSFIMPPAMADILDIWAVDSQIASDGSIPVDFLLPTGIYIQLEVPREATISYIKQMLWKQVHNYPMFNLLMDIDSYMFACVNQTAVYEELEDETRRLCDVRPFLPVLKLVTRSCDPGEKLDSKIGVLIGKGLHEFDSLKDPEVNEFRRKMRKFSEEKILSLVGLSWMDWLKQTYPPEHEPSIPENLEDKLYGGKLIVAVHFENCQDVFSFQVSPNMNPIKVNELAIQKRLTIHGKEDEVSPYDYVLQVSGRVEYVFGDHPLIQFQYIRNCVMNRALPHFILVECCKIKKMYEQEMIAIEAAINRNSSNLPLPLPPKKTRIISHVWENNNPFQIVLVKGNKLNTEETVKVHVRAGLFHGTELLCKTIVSSEVSGKNDHIWNEPLEFDINICDLPRMARLCFAVYAVLDKVKTKKSTKTINPSKYQTIRKAGKVHYPVAWVNTMVFDFKGQLRTGDIILHSWSSFPDELEEMLNPMGTVQTNPYTENATALHVKFPENKKQPYYYPPFDKIIEKAAEIASSDSANVSSRGGKKFLPVLKEILDRDPLSQLCENEMDLIWTLRQDCREIFPQSLPKLLLSIKWNKLEDVAQLQALLQIWPKLPPREALELLDFNYPDQYVREYAVGCLRQMSDEELSQYLLQLVQVLKYEPFLDCALSRFLLERALGNRRIGQFLFWHLRSEVHIPAVSVQFGVILEAYCRGSVGHMKVLSKQVEALNKLKTLNSLIKLNAVKLNRAKGKEAMHTCLKQSAYREALSDLQSPLNPCVILSELYVEKCKYMDSKMKPLWLVYNNKVFGEDSVGVIFKNGDDLRQDMLTLQMLRLMDLLWKEAGLDLRMLPYGCLATGDRSGLIEVVSTSETIADIQLNSSNVAAAAAFNKDALLNWLKEYNSGDDLDRAIEEFTLSCAGYCVASYVLGIGDRHSDNIMVKKTGQLFHIDFGHILGNFKSKFGIKRERVPFILTYDFIHVIQQGKTGNTEKFGRFRQCCEDAYLILRRHGNLFITLFALMLTAGLPELTSVKDIQYLKDSLALGKSEEEALKQFKQKFDEALRESWTTKVNWMAHTVRKDYRS	soluble
IIHREYPRHHVLHRFTPASKPNGKKILITHGWMSRAAYMVRLIRLLHKEGYEVYAIDFPAHGEAKGIQLPWTDAIAIIKETINQFGPFYGLVGHSFGGSMILNTLNLAGQLPEWQLNHKPERAILIASPTQMRTPVNKIARRFKLSGQAYLQLRQLIRQQASVDPERIRLSHFISQAPDTYFLCIHGELDATINPKESINFCKYYKNARLSLLPDADHVSVLMDERVEQIALDFLNR	not soluble
GMKQDSIITLHPDDRSEQTAEIMRRFNDVFQLHDPAALPELIAEECVIENTVPAPDGARHAGRQACVQLWSAIATQPGTRFDLEETFVAGDRATIRWRYWMADGNSVRGVNLMRVQDGRIVEAMGYVKG	soluble
CNFRSTETIVNWVNDHFSKIFSQQVDIESGAVSFHPSVHVIEKNESSTIQAVQFKNREQEARHLIEIINSELNRNPEQTIAVLVRTRTQLPEIISLLRQNNIPYQGTDIDLLANLVHLRDVWSLAHALLFPGNRLSWLSILHSPYVGLGLSDIHCIAQYNSRKSIYHNLLHLDKIQDISEEGRIRANFFIQIMNQALLCRSHSRLSDWIADTLKNLHVEKILDKAQLNDLEQLWMLLDQYEKEGRIPDMNEFLNEFNKLYAQQTTPSRLQIMTIHKSKGLEFDTVILPGLGSQANRGESPMLRWLKLPTQDHGNLLLVSPIKSANQDNCPLYDYLDQLDEEKSAYEAQRLLYVAVTRAKSRLYLLDHSAKSYKSS	not soluble
MKPQWQQYIQIINQVVKPALGCTEPIAAAYAAAVARTLLNDDPDSIAVQVSDNLYKNSMGVYVPGTGKIGLAIAAAAGALAGNADAGLEVLASVTPEQVAQAQALIDAAKVKVERTETDEFIYCCVTLTSGEQEAMVKICGGHTLIAEKRLNGELVFTADNAQAKATGSICDGVDINIESIYRFAEEVPFEEIQFILKASELNSKLSDEGMSKPYGLEVGRTMKNGIAAGIIGEDLLNKIVMLTAAASDARMGGANLPAMSNLGSGNQGIAATIPVVITAQCYKVSEEKLARALIMSHLGAIYIKSHYPPLSAFCGNTVTSAAASMAMVYLAGGSFEQSCFAIQNVISDSSGMVCDGAKASCAMKVSTSSSAAVRSFLMALSSQNVSGQGIIANHVEKTIKNIGKMVLNGMSSTDVTIINIMSE	not soluble
MTPEALSFWTQADKPFLFLAACIELTNALAYGPGYVCGLPCSWDGSCSGAQHLCAATRSEDAWKVNLIGNDEVHDLYTIVGNAAKQSMARDTDPMVSTILAYEGDWRKVFKRNTMTTFYGSKGFGMAQQHMDDLMEPLSREVMQKKRAKHPFGQTRKEHHAASRLLAAHAAAAIKGEIPLAIKAMEFIQKLSAMMAHEGKPLEWTTPIGLPWSNRYHDPVTERVNLWMHDHGVRRPFRPVVADGYKKTINKNHSVNGSAPNFVHACDAAHLLRTVNAARAEGITQFALVHDSFGSLPSHAARFRQIIREEFVRMYEEHDVLTEVLEQAKCDLDEHNDKLSALVDMRADLTGKLNIKEVLNAEYAFAYPKLSEPDTKGEYADGKYKTEGTATEDYTERFQEEIQKVADDNFPGKKNVHLPWKETKEGDIAFIFKNPKKKPILTDSRGKPLKEGTVIRGGSKIRIAGVIAAWEKGAKRGVSLWPDAVRVIKLSEGFDANAAFGAAEDGFNADDYEPTNFGNDGEDADNDADDAEAGDDAFKLLEHHHHHH	not soluble
MSVWLLQMKTNAIITDITKSIVKMDRILVYRHTNPDPDAIGAQFGLVALLKAAYPEKLVVAMAPVPGHLAWIDTTDEQLVTPQATDLVIAVDCANHERLAGELPTGAFVIKIDHHPNHDPYGQLNWVDETYSSCSEMIYELAQAGCFTVTAAVATKLYAGIIGDTVRFSTPETSTRTLKIASALAATDIDIATISHHEMDLTPALSKLYGYVLSEQTIEPSGLAHVVLPQRIFSDLSLEYGDEDALVPLPGNLTTVKVWLFFIETPQGQYRVHFRSKAINVNAVAKAFNGGGHPLASGAFVPDLATVGQVIEQMQAQVLAATAVDLEHHHHHH	not soluble
MAEEEVGNSQRQSEEIEAMAAIYGEEWCVIDENAKIFCIRVTDFMDDPKWTLCLQVMLPSEYPGTAPPSYQLNAPWLKGQERADLSNSLEEIYVHNMGESILYQWVEKIRDALIQKSQITEPDPDVKKKTEEVEVESEEDPILEHPPENPVKTLDLKISEETQPETEELPPVAHGVPITDRRSTFQAHVAPVVCPEQVKLVLAKLYENKKIASATHNIYAYRIFCEDKQTFLQDCEDDGETAAGGRLLHLMEILNVKNVMVVVSRWYGGILLGPDRFKHINNCARNILVEKNFTNTPDESTKNLGKKKVKKDKKKNDH	soluble
MVAEGFRLDLLLTIAQLVPSTYHYQVKQLDKPDKDKDLKAEIQAIYDEHKGNYGYRRIHLELRNRGFSVNHKKVQGLMKELGLTARIRRRKRYKSYKGDVGKKAPNLIERAFEGAKPFEKCYTDVTEFALPNCAEKLYLSPVLDGYNSEIIDFTLSRSPNLIQVKTMLEKVFPEETYPNTILHSDQGWQYQHEVYHRFLASKGIRPSMSRKGTSTDNSMMESFFGVLKTEMFYGFEKNFKSLDQLEQAITEYIFYYNNKRIKTKLKGLSPVQYRTKSFQ	not soluble
